This test concerns the target tau seeds in spinal cord homogenates of P301S transgenic mice (aggregated transgenic human tau) (human), P10636. Kind of test: cell-based or functional assay.

Sequence of tau seeds in spinal cord homogenates of P301S transgenic mice (aggregated transgenic human tau) (human), P10636 (P10636 other isoform, or with tags, fused parts or gaps P301S P301S): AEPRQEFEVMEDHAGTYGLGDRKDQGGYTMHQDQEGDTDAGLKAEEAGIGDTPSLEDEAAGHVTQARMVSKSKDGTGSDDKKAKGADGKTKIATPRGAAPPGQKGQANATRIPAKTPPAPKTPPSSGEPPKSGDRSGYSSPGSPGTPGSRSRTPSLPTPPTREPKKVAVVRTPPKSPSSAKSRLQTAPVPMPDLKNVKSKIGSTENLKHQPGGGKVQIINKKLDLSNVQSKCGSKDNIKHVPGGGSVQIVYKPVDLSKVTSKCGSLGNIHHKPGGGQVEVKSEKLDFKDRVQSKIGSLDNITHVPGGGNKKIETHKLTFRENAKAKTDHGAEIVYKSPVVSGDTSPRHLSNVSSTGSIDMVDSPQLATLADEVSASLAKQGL

B1: PT82 mAb (recombinantly expressed, mouse IgG2a/kappa) (antibody, V domains shown)
VH: EVKLEESGGGLVQPGGSMKLSCVASGFTFSNYWMNWIRQSPEKGLEWVAQIRLQSDNYATRYAESVKGRFTISRDESKTSVYLQMNNLRTEDTGIYYCTGGTTYWGQGTLVTVSA
VL: DIVMTQSQKFMSTSVGDRVSITCKASQNVGTAVAWYQQKPGQSPKLLIYSASIRYTGVPDRFTGSGSGTDFTLTINYMQSEDLADYFCQQFSSYPYTFGGGTKLEIK
The molecule B1 yielded a K18 aggregate formation, FRET-positive HEK cells counted by FACS of 3 nM.

Source of the values: patent US20210002358A1.
